Patent US12331106B2, “Anti-angiopoietin-2 antibodies that induce Tie2 activation” (Institute for Basic Science, priority 2018, dated 2025)

What was measured:
Format in all cases: in vivo, mice
[1] = test system: choroidal neovascularization (CNV); experiment: Laser-induced CNV model, subcutaneous injection: CNV inhibition; settings: 25 mg/kg subcutaneous at 1 day; 8 days after laser photocoagulation
Method: To determine the effect of subcutaneously injected 2C8H11 antibody in CNV inhibition, the subcutaneous administration of 2C8H11 antibody (25 mg/kg) was performed at 1 day after laser photocoagulation. As a control, Fc (25 mg/kg) was administered in a same manner to the mice. Anti-CD31 antibody (1:200, Millipore®) was used for the detection of endothelial cells of CNV, and CD31+CNV volumes of the RPE-choroid-sclera flat mounts were calculated using the MATLAB® Image Processing Toolbox™(Math Works) at 8 days after laser photocoagulation (FIG. 16A).

[2] = test system: choroidal neovascularization (CNV) / choriocapillaris; experiment: Laser-induced CNV model, OCTA: CNV volume and choriocapillary regeneration (avascular space); settings: for reduction of the avascular space: 5 μg intravitreal at 7 days, change from baseline
Method: To determine the effect of 2C8H11 in CNV regression and choriocapillary regeneration after establishment of CNV, Fc, VEGF-Trap, control antibody or 2C8H11 (5 μg each) was given intravitreally to the mice by the Nanoliter 2000 micro-injector (World Precision Instruments) at 7 days after laser photocoagulation. Intra-vital optical coherence tomography angiography (OCTA) was performed at 6, 14, 21, and 35 days after laser photocoagulation (FIG. 14A). The retinochoroidal layers were imaged using a prototype high-speed swept-source optical coherence tomography (OCT) system, utilizing a custom ring cavity wavelength-swept laser centered at 1048 nm with an A-scan rate of 230 kHz. OCT images were collected in a 1.7 mm×1.7 mm field of view within the retino-choroidal layer to monitor regeneration of choroidal vasculatures at the site of laser photocoagulation after intravitreal injection of reagents. […] Then, by using automatic layer flattening and segmentation algorithms, cross-sectional OCT angiograms were flattened to RPE, and en face OCT angiograms were generated by separate projection of each flattened cross-sectional OCT angiogram in three depth ranges: inner retinal, outer retinal and choroidal layers. The outer plexiform layer and Bruch's membrane were defined as the boundaries separating inner retinal, outer retinal, and choroidal layers. The density of retina and choroid vessel was automatically calculated as the proportion of measured area occupied by flowing blood vessels defined as pixels having decorrelation values above the threshold level. Avascular pixels were detected from the en face OCT angiogram representing choroidal layer by means of the image processing toolbox of MATLAB® (Math Works). Then the total volume of the avascular space surrounding the laser injury site was calculated by summing the number of avascular pixels multiplied by the volume of one pixel. In order to analyze the changing complexion of avascular space volume, serially measured values in each eye were transformed into percentage change from baseline value. […] Overall, these findings indicate that both 2C8H11 and […] promotes regeneration of the choriocapillaris, while VEGF-Trap leads to choriocapillary regression in the laser-induced CNV model.

[3] = test system: choroidal neovascularization (CNV); experiment: Laser-induced CNV model, intravitreal injection: CNV regression and vascular leakage; settings: 5 μg intravitreal at 7 days
Method: 2C8H11 antibody was tested for its ability to inhibit choroidal neovascularization (CNV), the hallmark of wet age-related macular degeneration (AMD) using laser-induced CNV model. After dilation of pupils with 5 mg/ml phenylephrine and 5 mg/ml tropicamide eye drops (Santen Pharmaceutical) and instillation of 0.5% proparacaine hydrochloride eye drops (Alcon) for topical anesthesia, laser photocoagulator (Lumenis Inc.) with a slit lamp delivery system was used with a glass coverslip as a contact lens to visualize the retina. Sufficient laser energy (532 nm wavelength, 250 mW power, 100 ms duration, 50 μm spot size) was delivered in 4 locations for each eye (the 3, 6, 9 and 12 o'clock positions of the posterior pole). Only burns that produced a bubble at the time of laser photocoagulation, indicating the rupture of the Bruch's membrane, were included in this study. Spots containing hemorrhage at the laser site were excluded from the analysis. To recapitulate a clinical situation, 2C8H11 (5 μg) was administered intravitreally to the mice at 7 days after laser photocoagulation (FIG. 13A). As a control or as for comparison, Fc or VEGF-Trap (5 μg each) was administered in the same manner to the mice. To intravitreally administer indicated reagents, ˜1 μl (5 mg/ml) containing 5 μg of each reagent was injected into the vitreal cavity using the Nanoliter 2000 micro-injector (World Precision Instruments) fitted with a glass capillary pipette. CD31+CNV volumes of the retinal pigment epithelium (RPE)-choroid-sclera flat mounts were calculated using the MATLAB® Image Processing Toolbox™ (Math Works, a comprehensive set of reference-standard algorithms and workflow apps for image processing, analysis, visualization, and algorithm development) at 14 days after laser photocoagulation. Anti-CD31 antibody (1:200, Millipore®) was used for the detection of endothelial cells of CNV. […] Combined fluorescein angiography (FA) and indocyanine green angiography (ICGA) enabled us to measure vascular leakage at the neovessels around the laser injury site. Continuous-wave laser modules at 488 nm and 785 nm were used as excitation sources for fluorescein and ICG, respectively. A raster scanning pattern of excitation lasers was achieved by a scanner system consisting of a rotating polygonal mirror (MC-5; Lincoln Laser) and a galvanometer-based scanning mirror (6230H; Cambridge technology), and delivered to the back aperture of an imaging lens. A high numerical aperture (NA) objective lens (PlanApo λ, NA 0.75; Nikon) was used as the imaging lens to provide wide-field fundus fluorescence images. Fluorescence signals detected by photomultiplier tubes (R9110; Hamamatsu Photonics) were digitized by frame grabber and reconstructed to images with size of 512×512 pixels per frame in real time. To visualize late-phase (6 min) FA and ICGA images utilizing the angiography system, 10 mg of fluorescein sodium (Alcon) and 0.15 mg of ICG (Daiichi Pharmaceutical) were administered intraperitoneally and intravenously, respectively. The imaging procedure was performed under systemic anesthesia and pupil dilation to improve the quality of images. Leaky areas from CNV were calculated as the total measured hyperfluorescent areas in FA images divided by the total measured CNV areas in ICGA images using a Java-based imaging software (ImajeJ; National Institutes of Health). […] Thus, the magnitude of the suppression of CNV and vascular leakage was quantitatively indistinguishable between VEGF-Trap and 2C8H11 in the mouse model of laser-induced CNV.

B1: 2C8H11: humanized anti-Ang2 human IgG1 antibody from mouse 2C8; VH SEQ ID NO: 55, VL SEQ ID NO: 56 (antibody, V domains shown)
VH: QVQLVQSGAEVKKPGASVKVSCKASGYTFTSYWMHWVRQAPGQGLEWMGMIDPSDSETRLNQKFKDRVTMTRDTSTSTVYMELSSLRSEDTAVYYCARRFYYGSDWYFDVWGQGTLVTVSS
VL: DIQLTQSPSFLSASVGDRVTITCKASQDVGTAVAWYQQKPGKAPKLLIYWASTRHTGVPSRFSGSGSGTEFTLTISSLQPEDFATYYCQQYSSYPLTFGQGTKVEIK
modifications: human IgG1 constant regions; VH; VL
[1]
  inhibition of CNV formation compared with Fc (CD31+ CNV volume): 69.9%
[2]; 5 μg intravitreal at 7 days after laser photocoagulation
  CNV volume in outer retinas (OCTA): markedly reduced CNV volume
[2]; 14 days after laser photocoagulation
  reduction of the avascular space: 30.1%
[2]; 21 days after laser photocoagulation
  reduction of the avascular space: 36.4%
[2]; 35 days after laser photocoagulation
  reduction of the avascular space: 37.0%
[3]; FA/ICGA, 14 days after laser photocoagulation
  vascular leakage suppression compared with Fc: 38.3%
[3]; measured 14 days after laser photocoagulation
  CNV regression compared with Fc (CD31+ CNV volume): 65.3%
[3]; within-group
  vascular leakage reduction between 6 and 14 days after laser photocoagulation: 50.0%
